Test results as given in paper PMC3146575.

Columns and labels:
[1] = target: T1, hOGG1 K249Q (catalytically inactive) (human, UniProt O15527 1-345, K249Q); test: EMSA
[2] = target: T1, hOGG1 K249Q (catalytically inactive); test: EMSA; remark: listed apart in the source

T1 sequence (O15527 whole entry K249Q): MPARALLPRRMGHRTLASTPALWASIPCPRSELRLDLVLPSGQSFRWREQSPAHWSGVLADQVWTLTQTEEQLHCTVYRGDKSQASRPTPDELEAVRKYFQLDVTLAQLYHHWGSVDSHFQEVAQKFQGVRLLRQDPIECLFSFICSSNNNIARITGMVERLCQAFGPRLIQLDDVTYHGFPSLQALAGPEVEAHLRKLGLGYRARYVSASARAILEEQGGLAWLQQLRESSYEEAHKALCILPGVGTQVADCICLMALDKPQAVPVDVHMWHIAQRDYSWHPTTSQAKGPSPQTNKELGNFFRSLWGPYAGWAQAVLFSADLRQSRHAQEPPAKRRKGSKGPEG

Binder	Kd [1] [nM]	binding result [2]
Stem-DUP (dsDNA, 8-oxoG in 2nd CAG repeat (G6 of strand 1)) DNA 1: CAGCAGCAGCAGCAGCAGCAGCAGCAGCAG DNA 2: CTGCTGCTGCTGCTGCTGCTGCTGCTGCTG	21.7 ± 6.8	–
CAGCAGCAGCAGCAGCAGCAGCAGCAGCAG (structured_DNA, 8-oxoG in 2nd CAG repeat (G6)) [Stem-HP]	–	no binding
CAGCAGCAGCAGCAGCAGCAGCAGCAGCAG (structured_DNA, 8-oxoG in 5th CAG repeat (G15)) [Loop-HP]	–	no binding
